Data taken from patent publication US20210395718A1, “NOVEL KETOSE 3-EPIMERASE” (NATIONAL UNIVERSITY CORPORATION KAGAWA UNIVERSITY, priority 2018, published 2021).
Where a chain is given by its changes, count along the chain named.

B1: Ketose 3-epimerase mutant 29: amino acid-substituted mutant of SEQ ID NO: 1 (protein)
chain: MKIGCHGLVWTGRFDAEGIRYSVQKTKEAGFDLIEFPLMDPFSFDVATAKSALAEYGLTASASLGLSEATDVSSEDPAIVKAGEELLNRALDVLAELGATDFCGVIYSAMKKYMEPATEQGLSNSKAAVGRVVDRAAGLGINVSLEVVNRYETNVLNTGRQALSYLSDVKRPNLGVHLDTYHMNIEESDMFSPVLDTAEALKYVHIGESHRGYLGTGSVDFDNFFKALGRIGYDGPVVFESFSSAVVAPDLSRMLGIWRNLWADNEELGAHANAFIRDKLTAIKTIELH
modifications: Arthrobacter histidinolovorans
B2: Ketose 3-epimerase mutant 6: amino acid-substituted mutant of SEQ ID NO: 1 (protein)
chain: B1 chain with Y56H, S218N
modifications: Arthrobacter histidinolovorans
B3: Ketose 3-epimerase mutant 32: amino acid-substituted mutant of SEQ ID NO: 1 (protein)
chain: B1 chain with Y56H, P77S
modifications: Arthrobacter histidinolovorans
B4: Ketose 3-epimerase mutant 36: amino acid-substituted mutant of SEQ ID NO: 1 (protein)
chain: B1 chain with Y56H, L94V
modifications: Arthrobacter histidinolovorans
B5: Ketose 3-epimerase mutant 37: amino acid-substituted mutant of SEQ ID NO: 1 (protein)
chain: B1 chain with Y56H, A109S
modifications: Arthrobacter histidinolovorans
B6: Ketose 3-epimerase mutant 2: amino acid-substituted mutant of SEQ ID NO: 1 (protein)
chain: B1 chain with Y56H, A200V, S218N
modifications: Arthrobacter histidinolovorans
B7: Ketose 3-epimerase mutant 4: amino acid-substituted mutant of SEQ ID NO: 1 (protein)
chain: B1 chain with Y56H, T59S, A60V, A200V, S218N
modifications: Arthrobacter histidinolovorans
B8: Ketose 3-epimerase mutant 34: amino acid-substituted mutant of SEQ ID NO: 1 (protein)
chain: B1 chain with Y56H, A128V
modifications: Arthrobacter histidinolovorans
B9: Ketose 3-epimerase mutant 30: amino acid-substituted mutant of SEQ ID NO: 1 (protein)
chain: B1 chain with Y56H, S144A
modifications: Arthrobacter histidinolovorans
B10: Ketose 3-epimerase mutant 5: amino acid-substituted mutant of SEQ ID NO: 1 (protein)
chain: B1 chain with Y56H, T59S, A60V, V129I, A200V
modifications: Arthrobacter histidinolovorans
B11: Ketose 3-epimerase mutant 33: amino acid-substituted mutant of SEQ ID NO: 1 (protein)
chain: B1 chain with Y56H, T59S, A60V, D101E, A200V, S218N
modifications: Arthrobacter histidinolovorans
B12: Ketose 3-epimerase mutant 35: amino acid-substituted mutant of SEQ ID NO: 1 (protein)
chain: B1 chain with Y56H, V132I
modifications: Arthrobacter histidinolovorans
B13: Ketose 3-epimerase mutant 3: amino acid-substituted mutant of SEQ ID NO: 1 (protein)
chain: B1 chain with Y56H, D101E, V129I, A200V
modifications: Arthrobacter histidinolovorans
B14: Ketose 3-epimerase mutant 31: amino acid-substituted mutant of SEQ ID NO: 1 (protein)
chain: B1 chain with Y56H, E199D
modifications: Arthrobacter histidinolovorans
B15: Ketose 3-epimerase mutant 1: amino acid-substituted mutant of SEQ ID NO: 1 (protein)
chain: B1 chain with Y56H, T59S, A60V, D101E, V129I, A200V, S218N
modifications: Arthrobacter histidinolovorans

Legend:
[1] = test system: ketose 3-epimerase (present enzyme, purified enzyme of wild strain); experiment: Substrate specificity of ketose 3-epimerase using 8 kinds of ketohexoses; assay type: biochemical, Arthrobacter histidinolovorans Y586-1 strain; details: each substrate 0.1 M, phosphate buffer pH 8.0, 70° C., 10 min; epimerization activity for D-allulose = 100
Protocol: The substrate specificity of the present enzyme after purification was investigated using 8 kinds of ketohexoses. […] After a reaction at 70° C. for 10 minutes, the reaction mixture was analyzed by HPLC to measure a ketose produced by epimerization of each sugar.
Supposing that the epimerization activity for D-allulose is 100, the activity for each ketose is shown as a relative activity.

[2] = Ketose 3-epimerase activity ratio (T70/T50) at reaction temperature of 70° C. to 50° C.; assay type: biochemical; details: crude recombinant enzyme; ratio of activity at 70° C. to activity at 50° C., 10 min reaction
Protocol: An enzyme having higher heat resistance than an amino acid substitution-free wild type enzyme can be obtained by introducing mutation into the gene of the ketose 3-epimerase of the present invention and substituting the corresponding amino acid residue with another amino acid residue by a site-directed mutagenesis operation to prepare various amino acid-substituted mutants. The heat resistance is evaluated by two indices, that is, a ketose 3-epimerase activity ratio (T70/T50) at the reaction temperatures of 70° C. to 50° C. and a residual activity after incubation at 60° C. for one hour.
Heat resistance of the present enzyme (crude recombinant enzyme) and the crude enzyme of the control enzyme was investigated by measuring an activity at 70° C. and an activity at 50° C. under the reaction conditions (10 minutes) used for determining the optimum temperature in the above 2 shown in Table 2 and finding their ratio (T70/T50).

[3] = Thermal stability: residual activity after incubation at 60° C. for one hour; assay type: biochemical; details: crude recombinant enzyme; after incubation at 60° C. for 1 hour
Protocol: Thermal stability of the enzyme was investigated by measuring the activity of the enzyme after incubation at 60° C. for one hour and finding its relative activity supposing that the activity at 60° C. under the reaction conditions (10 minutes) used for determining the optimum temperature in the above 2 shown in Table 2 was 100. As heat treatment conditions, the crude enzyme solution, a buffer (50 mM tris-HCl, pH 7.5), and 2 mM MgCl2 were used to give a total amount of 200 p1 and after retaining at 60° C. for one hour, the reaction mixture was cooled for 10 minutes in ice water. The residual enzyme activity was then measured by the conventional method.
The activity of each of the present enzyme (crude recombinant enzyme) and the crude enzyme of the control enzyme after incubation at 60° C. for 1 hour was measured and a relative activity of it was determined supposing that the activity at 60° C. under the reaction conditions (10 minutes) for determining the optimum temperature in the above 2 shown in Table 2 is 100. The relative activity was used as a heat resistance index of the enzyme. As heat treatment conditions, the crude enzyme solution, a buffer (50 mM tris-HCl, pH 7.5), and 2 mM MgCl2 were used to give a total amount of 200 p1 and after retaining at 60° C. for one hour, the reaction mixture was cooled for 10 minutes in ice water. The residual enzyme activity was measured by the conventional method.

Molecule | Relative activity (%) [1] | T70/T50 [2] | Residual activity (%) [3] [%]
O=C(CO)[C@H](O)[C@H](O)[C@H](O)CO [D-allulose] | 100.0% |  | 
O=C(CO)[C@@H](O)[C@H](O)[C@H](O)CO [D-fructose] | 43.4% |  | 
O=C(CO)[C@H](O)[C@@H](O)[C@H](O)CO [D-sorbose] | trace |  | 
O=C(CO)[C@@H](O)[C@@H](O)[C@H](O)CO [D-tagatose] | 72.2% |  | 
O=C(CO)[C@@H](O)[C@@H](O)[C@@H](O)CO [L-allulose] | 27.1% |  | 
O=C(CO)[C@H](O)[C@@H](O)[C@@H](O)CO [L-fructose] | trace |  | 
O=C(CO)[C@@H](O)[C@H](O)[C@@H](O)CO [L-sorbose] | trace |  | 
O=C(CO)[C@H](O)[C@H](O)[C@@H](O)CO [L-tagatose] | 59.2% |  | 
B1 |  | 1.58 | 56.8
B2 |  | 2.05 | 101.2
B3 |  | 1.53 | 39.9
B4 |  | 1.30 | 57.0
B5 |  | 1.07 | 63.3
B6 |  | 2.31 | 83.3
B7 |  | 2.08 | 123.2
B8 |  | 1.38 | 57.2
B9 |  | 1.57 | 66.9
B10 |  | 2.07 | 85.1
B11 |  | 1.46 | 91.0
B12 |  | 1.34 | 69.2
B13 |  | 2.11 | 94.5
B14 |  | 1.54 | 58.1
B15 |  | 2.37 | 74.1
